Experimental data as given in patent US20110097341A1 (Pfizer, published 2011).
Positions count from the first letter of the chain named. Like-named read-outs stand apart in the source and are kept apart here.

B1: 3C (Fab, V domains shown)
VH: QVQLQESGPGLVKPSETLSLTCTVSGFSLIGYDLNWIRQPPGKGLEWIGIIWGDGTTDYNSAVKSRVTISKDTSKNQFSLKLSSVTAADTAVYYCARGGYWYATSYYFDYWGQGTLVTVS
VL: DIQMTQSPSSLSASVGDRVTITCRASQSISNNLNWYQQKPGKAPKLLIYYTSRFHSGVPSRFSGSGSGTDFTFTISSLQPEDIATYYCQQERTLPYTFGQGTKLEIKR
B2: Fab E3 (Fab, V domains shown)
VH: B1 VH
VL: B1 VL with R92H
B3: H19-L129 (Fab, V domains shown)
VH: B1 VH with W101Y, A103G
VL: B1 VL with E91S, R92K
B4: 8L2-6D5 (Fab, V domains shown)
VH: B1 VH with L34I, I50M, V63L, W101Y, A103G
VL: B1 VL with S28D, N32H, T51I, E91S, R92K

Key:
Experiment in all cases: cell-based or functional assay
rat NGF [1] = target: T1, rat NGF (rat, UniProt P25427 122-241)
human NGF = human NGF (human, UniProt P01138 122-241)
rat NGF [2] = target: T1, rat NGF; remark: listed apart in the source
rat NGF [3] = target: T1, rat NGF; remark: listed apart in the source

human NGF, sequence (P01138 122-241 limits assumed): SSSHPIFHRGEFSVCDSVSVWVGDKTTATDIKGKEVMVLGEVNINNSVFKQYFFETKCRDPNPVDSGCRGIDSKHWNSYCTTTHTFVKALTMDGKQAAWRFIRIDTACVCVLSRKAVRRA
T1 sequence (P25427 122-241 limits assumed): as the sequence (P01138 122-241 limits assumed) above, with S3T, I6V, R9M, M37T, D60A, D65E, M92T, G94D, V117A, A120G counted along it

Molecule	IC50 (1.5 pM NGF), NGF-dependent survival of mouse E13.5 trigeminal neurons (rat NGF [1]) [pM]	IC50 (15 pM NGF), NGF-dependent survival of mouse E13.5 trigeminal neurons (rat NGF [1]) [pM]	IC50 (in the presence of 1.5 pM NGF), NGF-dependent survival of mouse E13.5 trigeminal neurons (human NGF) [pM]	IC50 (in the presence of 15 pM NGF), NGF-dependent survival of mouse E13.5 trigeminal neurons (human NGF) [pM]	concentration that totally blocked NGF-elicited survival of trigeminal neurons (human NGF) [nM]	IC50 (1.5 pM NGF), NGF-dependent survival of mouse E13.5 trigeminal neurons (rat NGF [2]) [pM]	IC50 (15 pM NGF), NGF-dependent survival of mouse E13.5 trigeminal neurons (rat NGF [2]) [pM]	IC50 in the presence of 15 pM rat NGF, trigeminal neuron survival (rat NGF [3]) [pM]
mouse antibody 911 (Fab)	34.6	161	63.5	322	20			
B1			5.6	80.9		6	31.6	
B2			< 1.2	< 21		< 1.3	< 8.3	~31.6
B3			9.6	60.1		6	31	
B4			462	1580		169	730	
